According to patent publication US20230056252A1 (Gilead, published 2023):
Substitutions are numbered along the chain they refer to.

B1: hPGT121.66 AAS + W/huSP34.3.8 scFv AAS + SAV + R (bispecific antibody, human IgG1, lambda, L234A L235A)
chain: EVQLVESGGGLVQPGGSLRLSCAASGFTFNTYAMNWVRQAPGKGLEWVGRIRSKYNNYATYYADSVKGRFTISRDDSKNSLYLQMNSLRTEDTAVYYCVRHGNFGHSYVSWFAYWGQGTLVTVSSGGGGSGGGGSGGGGSGGGGSQAVVTQEPSLTVSPGGTVTLTCGSSTGAVTTGHYANWVQQKPGQAPRGLIGGTNKRAPGVPARFSGSLLGGKAALTISGAQPEDEAEYYCALWYSNRWVFGGGTKLTVLEPKSSDKTHTCPPCPAPEAAGGPSVFLFPPKPKDTLMISRTPEVTCVVVDVSHEDPEVKFNWYVDGVEVHNAKTKPREEQYNSTYRVVSVLTVLHQDWLNGKEYKCKVSNKALPASIEKTISKAKGQPREPQVYTLPPSREEMTKNQVSLSCAVKGFYPSDIAVEWESNGQPENNYKTTPPVLDSDGSFFLVSKLTVDKSRWQQGNVFSCSVMHEALHNRYTQKSLSLSPGK
heavy: QMQLQESGPGLVKPSETLSLTCSVSGASISDSYWSWIRRSPGKGLEWIGYVHKSGDTNYNPSLKSRVHLSLDTSKNQVSLSLTGVTAADSGKYYCARTLHGRRIYGIVAFNEWFTYFYMDVWGTGTQVTVSSASTKGPSVFPLAPSSKSTSGGTAALGCLVKDYFPEPVTVSWNSGALTSGVHTFPAVLQSSGLYSLSSVVTVPSSSLGTQTYICNVNHKPSNTKVDKKVEPKSCDKTHTCPPCPAPEAAGGPSVFLFPPKPKDTLMISRTPEVTCVVVDVSHEDPEVKFNWYVDGVEVHNAKTKPREEQYNSTYRVVSVLTVLHQDWLNGKEYKCKVSNKALPASIEKTISKAKGQPREPQVYTLPPSREEMTKNQVSLWCLVKGFYPSDIAVEWESNGQPENNYKTTPPVLDSDGSFFLYSKLTVDKSRWQQGNVFSCSVMHEALHNHYTQKSLSLSPGK
light: not shown
B2: hPGT121.66 AAS + W/huSP34.13.8 scFv AAS + SAV + R (bispecific antibody, human IgG1, lambda, L234A L235A)
chain: B1 chain with N30S, D64A, S80T
heavy: B1 heavy
light: not shown
notes: also called 261; bispecific 261
B3: hPGT121.66 AAS + W/huSP34.34.12 scFv AAS + SAV + R (bispecific antibody, human IgG1, lambda, L234A L235A)
chain: B1 chain with D64A, R89K, V95M, E152P, G204W, V205T, L214S
heavy: B1 heavy
light: not shown
B4: hPGT121.66 AAS + W/huSP34.34.3 scFv AAS + SAV + R (bispecific antibody, human IgG1, lambda, L234A L235A)
chain: not shown
heavy: B1 heavy
light: not shown
B5: hPGT121.66 AAS + W/huSP34.34.11 scFv AAS + SAV + R (bispecific antibody, human IgG1, lambda, L234A L235A)
chain: B1 chain with D64A, R89K, V95M, I222L, R242L
heavy: B1 heavy
light: not shown
B6: hPGT121.66 AAS + W/huSP34.3.13 scFv AAS + SAV + R (bispecific antibody, human IgG1, lambda, L234A L235A)
chain: B1 chain with N199S, K200N
heavy: B1 heavy
light: not shown
B7: h3BNC117.52.64 AAS + SAV + YTE/huSP34.3.13 scFv AAS + W + YTE (bispecific antibody, human IgG1, kappa, L234A L235A)
chain: B1 chain with N199S, K200N, M291Y, S293T, T295E, S405W, A407L, V446Y, R474H
heavy: QVQLLQSGAAVTKPGASVRVSCEASGYNIRDYFIHWWRQAPGQGLQWVGWINPKTGQPNNPRQFQGRVSLTRHASFDFDTFSFYMDLKALRSDDTAVYFCARQRSDYWDFDVWGSGTQVTVSSASTKGPSVFPLAPSSKSTSGGTAALGCLVKDYFPEPVTVSWNSGALTSGVHTFPAVLQSSGLYSLSSVVTVPSSSLGTQTYICNVNHKPSNTKVDKKVEPKSCDKTHTCPPCPAPEAAGGPSVFLFPPKPKDTLYITREPEVTCVVVDVSHEDPEVKFNWYVDGVEVHNAKTKPREEQYNSTYRVVSVLTVLHQDWLNGKEYKCKVSNKALPASIEKTISKAKGQPREPQVYTLPPSREEMTKNQVSLSCAVKGFYPSDIAVEWESNGQPENNYKTTPPVLDSDGSFFLVSKLTVDKSRWQQGNVFSCSVMHEALHNHYTQKSLSLSPGK
light: DIQMTQSPSSLSASVGDTATITCQANGYLNWYQQRRGKAPKLLIYDGSKLERGVPSRFSGRRWGQEYNLTINNLQPEDIATYFCQVYEFVVPGTRLDLKRTVAAPSVFIFPPSDEQLKSGTASVVCLLNNFYPREAKVQWKVDNALQSGNSQESVTEQDSKDSTYSLSSTLTLSKADYEKHKVYACEVTHQGLSSPVTKSFNRGEC
B8: hPGT121.66 AAS W/huSP34.39.13 scFv AAS + SAV + R (bispecific antibody, human IgG1, lambda, L234A L235A)
chain: B1 chain with G68S, Q84E, N199S, K200N
heavy: B1 heavy
light: not shown
B9: hPGT121.66 AAS + W/huSP34.41.13 scFv AAS + SAV + R (bispecific antibody, human IgG1, lambda, L234A L235A)
chain: B1 chain with R19S, G68S, N199S, K200N
heavy: B1 heavy
light: not shown
B10: hPGT121.66 AAS + W/huSP34.40.13 scFv AAS + SAV + R (bispecific antibody, human IgG1, lambda, L234A L235A)
chain: B1 chain with T60A, G68S, N199S, K200N
heavy: B1 heavy
light: not shown
notes: also called 276; bispecific 276
B11: hCD4D1.22 Fc AAS + W + YTE/huSP34.39.13 AAS + SAV + R (bispecific antibody, human IgG1, lambda, L234A L235A)
chain: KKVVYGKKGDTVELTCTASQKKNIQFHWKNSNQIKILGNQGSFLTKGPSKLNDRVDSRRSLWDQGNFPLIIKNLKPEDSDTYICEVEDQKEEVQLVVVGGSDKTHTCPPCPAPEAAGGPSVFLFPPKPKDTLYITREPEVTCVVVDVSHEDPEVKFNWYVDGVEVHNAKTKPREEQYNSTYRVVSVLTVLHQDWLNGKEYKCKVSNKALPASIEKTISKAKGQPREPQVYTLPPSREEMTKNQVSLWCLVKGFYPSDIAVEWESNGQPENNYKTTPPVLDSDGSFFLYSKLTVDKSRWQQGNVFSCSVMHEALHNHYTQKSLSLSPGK
heavy: EVQLVESGGGLVQPGGSLRLSCAASGFTFNTYAMNWVRQAPGKGLEWVGRIRSKYNNYATYYADSVKSRFTISRDDSKNSLYLEMNSLRTEDTAVYYCVRHGNFGHSYVSWFAYWGQGTLVTVSSASTKGPSVFPLAPSSKSTSGGTAALGCLVKDYFPEPVTVSWNSGALTSGVHTFPAVLQSSGLYSLSSVVTVPSSSLGTQTYICNVNHKPSNTKVDKKVEPKSCDKTHTCPPCPAPEAAGGPSVFLFPPKPKDTLMISRTPEVTCVVVDVSHEDPEVKFNWYVDGVEVHNAKTKPREEQYNSTYRVVSVLTVLHQDWLNGKEYKCKVSNKALPASIEKTISKAKGQPREPQVYTLPPSREEMTKNQVSLSCAVKGFYPSDIAVEWESNGQPENNYKTTPPVLDSDGSFFLVSKLTVDKSRWQQGNVFSCSVMHEALHNRYTQKSLSLSPGK
light: QAVVTQEPSLTVSPGGTVTLTCGSSTGAVTTGHYANWVQQKPGQAPRGLIGGTSNRAPGVPARFSGSLLGGKAALTISGAQPEDEAEYYCALWYSNRWVFGGGTKLTVLGQPKAAPSVTLFPPSSEELQANKATLVCLISDFYPGAVTVAWKADSSPVKAGVETTTPSKQSNNKYAASSYLSLTPEQWKSHRSYSCQVTHEGSTVEKTVAPTECS
notes: also called 180; bispecific 180
B12: hCD4D1.22 Fc AAS + W + YTE/huSP34.40.13 AAS + SAV + R (bispecific antibody, human IgG1, lambda, L234A L235A)
chain: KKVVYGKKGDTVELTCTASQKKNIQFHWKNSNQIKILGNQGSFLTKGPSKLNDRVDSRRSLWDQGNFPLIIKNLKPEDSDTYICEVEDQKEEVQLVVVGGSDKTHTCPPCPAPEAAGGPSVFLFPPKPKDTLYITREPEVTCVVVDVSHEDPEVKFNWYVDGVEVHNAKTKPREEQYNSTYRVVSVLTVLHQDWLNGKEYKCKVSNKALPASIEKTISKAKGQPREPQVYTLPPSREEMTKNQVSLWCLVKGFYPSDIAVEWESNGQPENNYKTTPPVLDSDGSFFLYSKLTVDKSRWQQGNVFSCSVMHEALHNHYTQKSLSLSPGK
heavy: B11 heavy with T60A, E84Q
light: B11 light
notes: also called 188; bispecific 188
B13: hCD4D1.22 Fc AAS + W + YTE/huSP34.41.13 AAS + SAV + R (bispecific antibody, human IgG1, lambda, L234A L235A)
chain: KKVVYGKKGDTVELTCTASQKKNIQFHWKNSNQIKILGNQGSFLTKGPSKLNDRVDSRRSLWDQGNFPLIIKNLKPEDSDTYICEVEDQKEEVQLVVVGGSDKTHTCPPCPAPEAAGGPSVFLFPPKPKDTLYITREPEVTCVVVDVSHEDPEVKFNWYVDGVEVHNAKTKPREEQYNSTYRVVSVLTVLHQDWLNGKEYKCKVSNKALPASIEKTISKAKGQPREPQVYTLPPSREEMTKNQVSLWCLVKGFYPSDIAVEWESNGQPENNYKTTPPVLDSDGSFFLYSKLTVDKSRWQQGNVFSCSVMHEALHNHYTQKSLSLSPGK
heavy: B11 heavy with R19S, E84Q
light: B11 light
B14: huSP34.7.6 Fab-HF (Fab, V domains shown)
VH: EVQLVESGGGLVQPGGSLRLSCAASGFTFSDYAMNWVRQAPGKGLEWVGRTRSKYNNYATYYAASVKGRFTISRDDSKNSLYLQMNSLKTEDTAVYYCVRHGNFGNSYVSWFAVWGQGTLVTVSS
VL: QAVVTQPPSLTVSPGGTVTLTCGSSTGAVTTGHYANWVQQKPGQAPRGLIGGTSNRAPGVPARFSGSLSGGKAALTISGAQPEDEAEYYCALWYSARWVFGGGTKLTVL
B15: huSP34.9.6 Fab-HF (Fab, V domains shown)
VH: B14 VH with N57S
VL: B14 VL
B16: huSP34.10.6 Fab-HF (Fab, V domains shown)
VH: B14 VH with N57S, N106H
VL: B14 VL

What follows are binders tested against T1, biotinylated CD3 epsilon:delta heterodimer protein (Amsbio AMS.CDD-H52WO) (Homo sapiens (Human), UniProt P07766 23-126; P04234 22-105) (assay: BLI (Octet), CD3 on SA sensor, bispecific analyte).
T1 construct: also called CD3 heterodimer
With B1 the Kd was 7.1 nM, the koff was 0.000475 s⁻¹ and the kon was 66600 M⁻¹ s⁻¹. With B2 the Kd was 20.8 nM, the koff was 0.000947 s⁻¹ and the kon was 48500 M⁻¹ s⁻¹. Binder B3 has a Kd of 9.9 nM, a koff of 0.00431 s⁻¹ and a kon of 433000 M⁻¹ s⁻¹. With B4 the Kd was 10.3 nM, the koff was 0.00619 s⁻¹ and the kon was 620000 M⁻¹ s⁻¹. With B5 the Kd was 16 nM, the koff was 0.00172 s⁻¹ and the kon was 116000 M⁻¹ s⁻¹. B6 showed a Kd of 16.8 nM, a koff of 0.00171 s⁻¹ and a kon of 106000 M⁻¹ s⁻¹.

Each binder was assayed against T2, biotinylated Human CD3E and CD3D (Acro Biosystems Cat CDD-H82W1) (human, UniProt P07766 23-126; P04234 22-105) (assay: SPR (Biacore 4000), CD3 captured on streptavidin chip;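 also: bispecific antibodies or Fabs injected at several concentrations over CD3 surfaces of varying density, sensorgrams fitted with a simple kinetic model to obtain association, dissociation and equilibrium constants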).
T2 construct: also called biotinylated CD3
Work on B1 yielded a Kd of 2.5 nM, a koff of 0.0071 s⁻¹ and a kon of 2.8e+06 M⁻¹ s⁻¹. For B7, the Kd was 2.7 nM, the koff was 0.0087 s⁻¹ and the kon was 3.3e+06 M⁻¹ s⁻¹. B8 gave a Kd of 2.6 nM, a koff of 0.009 s⁻¹ and a kon of 3.4e+06 M⁻¹ s⁻¹. In the case of B9, the Kd is reported as 2.8 nM, the koff is reported as 0.0085 s⁻¹ and the kon is reported as 3e+06 M⁻¹ s⁻¹. Binder B10 has a Kd of 1.8 nM, a koff of 0.0063 s⁻¹ and a kon of 3.6e+06 M⁻¹ s⁻¹. Binder B3 has a Kd of 32 nM, a koff of 0.0119 s⁻¹ and a kon of 370000 M⁻¹ s⁻¹. B4 showed a Kd of 43 nM, a koff of 0.017 s⁻¹ and a kon of 390000 M⁻¹ s⁻¹. For B5, the Kd was 3.9 nM, the koff was 0.0129 s⁻¹ and the kon was 3.3e+06 M⁻¹ s⁻¹. B6 showed a Kd of 2.4 nM, a koff of 0.0084 s⁻¹ and a kon of 3.6e+06 M⁻¹ s⁻¹. With B11 the Kd was 2.5 nM, the koff was 0.0049 s⁻¹ and the kon was 2e+06 M⁻¹ s⁻¹. B12 showed a Kd of 1.6 nM, a koff of 0.0036 s⁻¹ and a kon of 2.2e+06 M⁻¹ s⁻¹. With B13 the Kd was 2 nM, the koff was 0.0047 s⁻¹ and the kon was 2.4e+06 M⁻¹ s⁻¹.

Each binder was assayed against T3, CD3 expressed on cell-surface of primary human T cells (human, UniProt P07766 23-207; P04234 22-171) (assay: flow cytometry competition vs murine SP34-AF488 on human T cells, n = 1).
T3 construct: also called cell-surface CD3; human CD3
For B14, the IC50 was > 20 µg/mL. B15 was tested, and the IC50 was > 20 µg/mL. With B16 the IC50 was > 20 µg/mL.
